Target: 53BP1 (UniProt Q12888)
Test: FLAG-53BP1 IP, Myc-PP4R3β immunoblot
Settings: reference: wild type, mitotic cells; sites S840

binding against the reference: weaker
Substance: PP4R3β (from UniProt Q5MIZ7) S840A, mitotic cells

Source: article PMC6751209
